Results taken from PMC3093405, “A Motif Unique to the Human Dead-Box Protein DDX3 Is Important for Nucleic Acid Binding, ATP Hydrolysis, RNA/DNA Unwinding and HIV-1 Replication” (PLoS ONE, 2011).

B1: N-DDX3: DDX3 mutant lacking the C-terminus (Δ428–662), aa 1–427, entire subdomain 1 plus linker (protein, UniProt O00571 1-427, looked up, fragment)
chain: MSHVAVENALGLDQQFAGLDLNSSDNQSGGSTASKGRYIPPHLRNREATKGFYDKDSSGWSSSKDKDAYSSFGSRSDSRGKSSFFSDRGSGSRGRFDDRGRSDYDGIGSRGDRSGFGKFERGGNSRWCDKSDEDDWSKPLPPSERLEQELFSGGNTGINFEKYDDIPVEATGNNCPPHIESFSDVEMGEIIMGNIELTRYTRPTPVQKHAIPIIKEKRDLMACAQTGSGKTAAFLLPILSQIYSDGPGEALRAMKENGRYGRRKQYPISLVLAPTRELAVQIYEEARKFSYRSRVRPCVVYGGADIGQQIRDLERGCHLLVATPGRLVDMMERGKIGLDFCKYLVLDEADRMLDMGFEPQIRRIVEQDTMPPKGVRHTMMFSATFPKEIQMLARDFLDEYIFLAVGRVGSTSENITQKVVWVEESDK
B2: I-DDX3: double deletion DDX3 mutant (Δ1–159/Δ428–662), aa 160–427, helicase core of subdomain 1 (protein, UniProt O00571 160-427, looked up, fragment)
chain: FEKYDDIPVEATGNNCPPHIESFSDVEMGEIIMGNIELTRYTRPTPVQKHAIPIIKEKRDLMACAQTGSGKTAAFLLPILSQIYSDGPGEALRAMKENGRYGRRKQYPISLVLAPTRELAVQIYEEARKFSYRSRVRPCVVYGGADIGQQIRDLERGCHLLVATPGRLVDMMERGKIGLDFCKYLVLDEADRMLDMGFEPQIRRIVEQDTMPPKGVRHTMMFSATFPKEIQMLARDFLDEYIFLAVGRVGSTSENITQKVVWVEESDK
B3: DDX1: full length human DEAD-box protein DDX1, recombinant, largest known insertion between motifs I and Ia (protein, UniProt Q92499 1-740, looked up)
chain: MAAFSEMGVMPEIAQAVEEMDWLLPTDIQAESIPLILGGGDVLMAAETGSGKTGAFSIPVIQIVYETLKDQQEGKKGKTTIKTGASVLNKWQMNPYDRGSAFAIGSDGLCCQSREVKEWHGCRATKGLMKGKHYYEVSCHDQGLCRVGWSTMQASLDLGTDKFGFGFGGTGKKSHNKQFDNYGEEFTMHDTIGCYLDIDKGHVKFSKNGKDLGLAFEIPPHMKNQALFPACVLKNAELKFNFGEEEFKFPPKDGFVALSKAPDGYIVKSQHSGNAQVTQTKFLPNAPKALIVEPSRELAEQTLNNIKQFKKYIDNPKLRELLIIGGVAARDQLSVLENGVDIVVGTPGRLDDLVSTGKLNLSQVRFLVLDEADGLLSQGYSDFINRMHNQIPQVTSDGKRLQVIVCSATLHSFDVKKLSEKIMHFPTWVDLKGEDSVPDTVHHVVVPVNPKTDRLWERLGKSHIRTDDVHAKDNTRPGANSPEMWSEAIKILKGEYAVRAIKEHKMDQAIIFCRTKIDCDNLEQYFIQQGGGPDKKGHQFSCVCLHGDRKPHERKQNLERFKKGDVRFLICTDVAARGIDIHGVPYVINVTLPDEKQNYVHRIGRVGRAERMGLAISLVATEKEKVWYHVCSSRGKGCYNTRLKEDGGCTIWYNEMQLLSEIEEHLNCTISQVEPDIKVPVDEFDGKVTYGQKRAAGGGSYKGHVDILAPTVQELAALEKEAQTSFLHLGYLPNQLFRTF
modifications: full-length
notes: full length human DEAD-box protein DDX1, recombinant, largest known insertion between motifs I and Ia

What was measured:
Assay type in all cases: biochemical
[1] = ATPase activity assay ([γ-32P]ATP hydrolysis, TLC), steady-state kinetics; conditions: for Intrinsic ability to hydrolyze ATP: absence of nucleic acid; for Stimulation of ATPase activity by nucleic acids: presence of both NA (RNA, DNA)
Protocol: (§1) The ATPase activity was determined, as previously described, by directly monitoring [γ-^32P] ATP hydrolysis by thin-layer chromatography (TLC). ATP (3000 Ci/mmol) as tracer, plus 1 mM of cold ATP, unless otherwise stated, and nucleic acids as indicated. Samples were incubated for 5 minutes at 25°C and dotted onto TLC sheets of polyethylenimine cellulose. The products were separated by ascending chromatography with 0.5 M KH2PO4 (pH 3.4). The intensities of the radioactive bands corresponding to ATP and Pi were quantified by densitometric scanning with PhosphoImager. For the stimulation of the ATPase activity, the ssDNA oligonucleotide oligo(dT)20 or the ssRNA oligonucleotide oligo (rU)20 were used. Time-course experiments were performed under the conditions described above. Samples were taken at different time points and processed as described above.
ATPase reactions were performed as described, in the presence of increasing amounts of nucleic acids and variable ATP concentrations. […] The relative -fold increase in the ATPase velocities 1−(vDNA/v) as a function of the nucleic acid concentrations was fitted to the hyperbolic relationship: [drawing 2] (2) where vNA is the apparent velocity of the reaction in the presence of nucleic acid, v is the velocity in its absence, KD is the apparent affinity for the nucleic acid and [NA] is the concentration of the nucleic acid substrate. The symbol KD is used, instead of Km, solely to reflect the fact that the NA is not a reactant (i.e. it is not converted into products) but only a cofactor of the reaction, without implying any assumption on the nature of the microscopic rates contributing to the KD value itself.

[2] = ATPase time-course (burst kinetics)
Protocol: as §1
Variation of the ATPase reaction as a function of time was fitted to the mixed-exponential equation: [drawing 3] (3) where [P] is the concentration of products (pmols) at any given time point, t is time, Aburst is the burst amplitude, k burst is the rate of the exponential phase, k ss is the rate of the steady-state linear phase.

[3] = test system: 18/36mer ds RNA oligonucleotide; experiment: RNA helicase assay; conditions: data not shown
From the text: (§2) The helicase activity of DDX3wt and mutant forms was monitored by measuring the conversion of a double stranded (ds) DNA or RNA (labelled at the 5′-end of one strand with a 6-FAM fluorescent group) into single stranded (ss) nucleic acid. For the RNA helicase assay, a 18/36mer ds RNA oligonucleotide with both 3′ and 5′-protruding ss ends was used. For the DNA helicase assay, three different dsDNA substrates were used, all of them composed of the same 18mer oligonucleotide 5′-FAM labelled and three different 38 mer oligonucleotides with the sequence complementary to the 18 mer at different positions. Annealing of the 18 mer to each of the 38 mer generated the different DNA substrates shown in Fig. 5 A. A final concentration of 20 nM RNA or DNA substrate was used in the experiments, unless otherwise stated. The amounts of the different DDX3 proteins are indicated in the respective Figures.
Reactions were performed in 50 mM TrisHCl pH 7.5, 1 mM DTT, 0.2 mg/ml BSA, 5% glycerol and 1 mM ATP, 10 mM MgCl2 at 37°C degrees for 10′ and stopped by adding EDTA 50 mM pH 8. Products were separated on a native 7% PAGE […] at 5 W in TBE buffer with 0.1% SDS at 4°C for 2 hours for RNA substrates, 4 hours for DNA substrates. Substrates and products were quantified by laser scanning densitometry (Thyphoon-TRIO, GE Healthcare). […]

[4] = test system: partially dsDNA substrates (18/38-mer); experiment: DNA helicase assay; conditions: for DNA helicase activity: data not shown
From the text: as §2
Reactions were performed in 50 mM TrisHCl pH 7.5, 1 mM DTT, 0.2 mg/ml BSA, 5% glycerol and 1 mM ATP, 10 mM MgCl2 at 37°C degrees for 10′ and stopped by adding EDTA 50 mM pH 8. Products were separated on a native 7% PAGE […] at 5 W in TBE buffer with 0.1% SDS at 4°C for 2 hours for RNA substrates, 4 hours for DNA substrates. Substrates and products were quantified by laser scanning densitometry (Thyphoon-TRIO, GE Healthcare). For trap-assays, the enzyme and the RNA substrate were incubated on ice for 4 min, in the absence of ATP. Reactions were started by addition of ATP and a 50-fold molar excess (1 µM) of r(A)40 trap RNA oligonucleotide, followed by incubation at 37°C for the indicated times.

[5] = relative to absence of nucleic acid

Molecule	k cat ([1]; +DNA, oligo(dT)20) [s⁻¹]	k cat ([1]; +RNA, oligo(rU)20) [s⁻¹]	Intrinsic ability to hydrolyze ATP [1]	k cat ([1]; absence of nucleic acids) [s⁻¹]	Stimulation of ATPase activity by nucleic acids [1]	Aburst ([2]; +DNA, oligo(dT)20) [µM]	k burst ([2]; +DNA, oligo(dT)20) [min⁻¹]	k ss ([2]; +DNA, oligo(dT)20) [min⁻¹]	Aburst ([2]; +RNA, oligo(rU)20) [µM]	k burst ([2]; +RNA, oligo(rU)20) [min⁻¹]	k ss ([2]; +RNA, oligo(rU)20) [min⁻¹]	Aburst ([2]; absence of nucleic acids) [µM]	k burst ([2]; absence of nucleic acids) [min⁻¹]	k ss ([2]; absence of nucleic acids) [min⁻¹]	RNA helicase activity [3]	DNA helicase activity [4]	Increase of catalytic efficiency (kcat/Km) by DNA [1, 5] [fold]	Increase of catalytic efficiency (kcat/Km) by RNA [1, 5] [fold]	DNA unwinding ([4]; DNA duplex with both 5′- and 3′-protruding ssDNA ends, 18/[5′-3′]-38 mer)
B1	0.0183 ± 0.0083	0.0163 ± 0.0005	low but detectable ATPase activity	0.013 ± 0.005	no stimulation	0.12 ± 0.01	0.5 ± 0.5	0.33 ± 0.05	0.13 ± 0.01	0.5 ± 0.5	0.35 ± 0.06	0.12 ± 0.02	1 ± 0.5	0.4 ± 0.05	did not show helicase activity	inactive	–	–	–
B2	0.0233 ± 0.0067	0.0267 ± 0.0083	low but detectable ATPase activity	0.0183 ± 0.0033	no stimulation	0.15 ± 0.02	0.4 ± 0.6	0.3 ± 0.05	0.11 ± 0.03	0.4 ± 0.5	0.4 ± 0.04	0.12 ± 0.02	0.3 ± 0.4	0.3 ± 0.05	did not show helicase activity	inactive	–	–	–
B3	0.035 ± 0.005	0.0633 ± 0.0083	–	0.0317 ± 0.005	–	–	–	–	–	–	–	–	–	–	–	–	1.3	2.6	did not display DNA unwinding capability
